Where two headings read alike, the source gives them in different places.
T1: APRIL (Acro Biosystems, Cat: APL-H52D1) (UniProt O75888 115-250, limits assumed)
T1 construct: also called ARPIL
T1 sequence (looked up): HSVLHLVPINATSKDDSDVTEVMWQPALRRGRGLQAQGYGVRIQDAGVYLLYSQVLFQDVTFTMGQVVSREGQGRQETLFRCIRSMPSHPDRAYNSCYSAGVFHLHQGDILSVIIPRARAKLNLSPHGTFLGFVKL

B1: TACI-9-Fc (Fc fusion)
chain: SLSCRKEQGKFYDHLLRDCISCASICGQHPKQCAYFCENKLDKTHTCPPCPAPEAEGAPSVFLFPPKPKDTLMISRTPEVTCVVVDVSHEDPEVKFNWYVDGVEVHNAKTKPREEQYNSTYRVVSVLTVLHQDWLNGKEYKCKVSNKALPSSIEKTISKAKGQPREPQVYTLPPSRDELTKNQVSLTCLVKGFYPSDIAVEWESNGQPENNYKTTPPVLDSDGSFFLYSKLTVDKSRWQQGNVFSCSVMHEALHNHYTQKSLSLSPGK
notes: C-terminus of TACI-9 fused directly to the N-terminus of human IgG1 Fc; two identical polypeptide chains; expressed in 293E
B2: B575701 (Fc fusion)
chain: LSCRKEQGKFYDHLLRDCISCASICGQHPKQCAYFCENKLRSPGMLQMAGQCSQNEYFDSLLHACIPCQLRCSSNTPPLTCQRYCNASVTNSVKGTNADKTHTCPPCPAPEAEGAPSVFLFPPKPKDTLMISRTPEVTCVVVDVSHEDPEVKFNWYVDGVEVHNAKTKPREEQYNSTYRVVSVLTVLHQDWLNGKEYKCKVSNKALPSSIEKTISKAKGQPREPQVYTLPPSRDELTKNQVSLTCLVKGFYPSDIAVEWESNGQPENNYKTTPPVLDSDGSFFLYSKLTVDKSRWQQGNVFSCSVMHEALHNHYTQKSLSLSPGK
notes: TACI-BCMA fusion protein; also called TACI-d2-BCMA-ECD-Fc
B3: Atacicept (Fc fusion)
chain: AMRSCPEEQYWDPLLGTCMSCKTICNHQSQRTCAAFCRSLSCRKEQGKFYDHLLRDCISCASICGQHPKQCAYFCENKLRSEPKSSDKTHTCPPCPAPEAEGAPSVFLFPPKPKDTLMISRTPEVTCVVVDVSHEDPEVKFNWYVDGVEVHNAKTKPREEQYNSTYRVVSVLTVLHQDWLNGKEYKCKVSNKALPSSIEKTISKAKGQPREPQVYTLPPSRDELTKNQVSLTCLVKGFYPSDIAVEWESNGQPENNYKTTPPVLDSDGSFFLYSKLTVDKSRWQQGNVFSCSVMHEALHNHYTQKSLSLSPGK
B4: B575704 (Fc fusion)
chain: MLQMAGQCSQNEYFDSLLHACIPCQLRCSSNTPPLTCQRYCNASVTNSVKGTNASRVDQEERFPQGLWTGVAMRSCPEEQYWDPLLGTCMSCKTICNHQSQRTCAAFCRSLSCRKEQGKFYDHLLRDCISCASICGQHPKQCAYFCENKLRSPVNLPPELDKTHTCPPCPAPEAEGAPSVFLFPPKPKDTLMISRTPEVTCVVVDVSHEDPEVKFNWYVDGVEVHNAKTKPREEQYNSTYRVVSVLTVLHQDWLNGKEYKCKVSNKALPSSIEKTISKAKGQPREPQVYTLPPSRDELTKNQVSLTCLVKGFYPSDIAVEWESNGQPENNYKTTPPVLDSDGSFFLYSKLTVDKSRWQQGNVFSCSVMHEALHNHYTQKSLSLSPGK
notes: TACI-BCMA fusion protein; also called BCMA-ECD-TACI-T2-Fc

Key:
[1] = target: T2, BAFF (Sino biological, 10056-HNCH) (UniProt Q9Y275 134-285, biotinylated in the blocking ELISA (site not stated)); experiment: ELISA, BAFF coated at 1 ug/mL, anti-human IgG-HRP
T2 construct: also called BLyS
Procedure: (§1) In addition, the BAFF binding activity of the constructed TACI-Fc fusion proteins was assessed, and the TACI-Fc fusion proteins' functional activity of blocking the binding of BAFF to BAFF-R was assessed (see Example 1 for the experimental method).
(§2) The BAFF binding activity of the TACI-Fc fusion proteins was assessed as follows: BAFF (Sino biological, 10056-HNCH) protein was diluted with a pH 7.4 PBS (BasalMedia, B320) buffer to 1 μg/mL, and the resulting dilution was added to a 96-well microplate (Corning, 3590) at 100 μL/well. The plate was incubated overnight at 4° C. After the liquid was discarded, 5% skim milk (BD, 232100), diluted with PBS, was added at 300 μL/well for blocking, and the plate was incubated at 37° C. for 2 h. After the blocking, the blocking solution was discarded, and the plate was washed 3 times with a PBST buffer (pH 7.4 PBS containing 0.10% tween-20). Serially diluted test antibody or fusion protein solutions were added at 100 μL/well, and the plate was incubated at 37° C. for 1 h. […] The plate was incubated at 37° C. for 1 h. After the plate was washed 3 times with PBST, the chromogenic substrate TMB (KPL, 5120-0077) was added at 100 μL/well. The plate was incubated at room temperature for 10-15 min, and 1 M H₂SO₄ was added at 50 μL/well to stop the reaction. The absorbance at 450 nm was measured using a microplate reader. Curves for the binding of the antibodies to the antigen were fitted using software, and EC₅₀ values were calculated.

[2] = target: T2, BAFF (Sino biological, 10056-HNCH); experiment: ELISA, BAFF coated at 1 ug/mL, anti-human IgG-HRP; remark: listed apart in the source
Procedure: as §2
The BAFF binding activity of the constructed TACI-Fc fusion proteins was assessed (see Example 2 for the experimental method), and the results are shown in Table 3: […]

[3] = target: T2, BAFF (Sino biological, 10056-HNCH); experiment: competition ELISA: fusion protein pre-mixed with biotinylated BAFF, added to coated BAFF-R
Procedure: The above TACI-Fc fusion proteins' function of blocking the binding of BAFF to BAFF-R was further assessed as follows: The receptor protein was diluted with a pH 7.4 PBS (BasalMedia, B320) buffer to 2 μg/mL, and the resulting dilution was added to a 96-well microplate (Corning, 3590) at 100 μL/well. The plate was incubated overnight at 4° C. After the liquid was discarded, 1% Casein blocking solution (Thermo, 37528) was added at 200 μL/well for blocking, and the plate was incubated at 37° C. for 2 h. After the blocking, the blocking solution was discarded, and the plate was washed 3 times with a PBST buffer (pH 7.4 PBS containing 0.1% tween-20) and set aside for later use. A biotinylated ligand protein at a fixed concentration was mixed with a serially diluted antibody or fusion protein, and the mixture was pre-incubated at 37° C. for 30 min and then added to the blocked microplate. The plate was incubated at 37° C. for 1.5 h. After the incubation, the plate was washed 3 times with PBST, and streptavidin-HRP (Invitrogen, 434323, diluted in a 1:4000 ratio) was added at 100 μL/well. The plate was incubated at 37° C. for 1 h. The supernatant was removed. […] The absorbance at 450 nm was measured using a microplate reader. Curves for the inhibition of the binding of the ligand to the receptor were fitted using software, and IC₅₀ values were calculated. […]

[4] = target: T2, BAFF (Sino biological, 10056-HNCH); experiment: as above; remark: listed apart in the source
Procedure: The above TACI-Fc fusion proteins' function of blocking the binding of BAFF to BAFF-R was further assessed as follows: The receptor protein was diluted with a pH 7.4 PBS (BasalMedia, B320) buffer to 2 μg/mL, and the resulting dilution was added to a 96-well microplate (Corning, 3590) at 100 μL/well. The plate was incubated overnight at 4° C. After the liquid was discarded, 1% Casein blocking solution (Thermo, 37528) was added at 200 μL/well for blocking, and the plate was incubated at 37° C. for 2 h. After the blocking, the blocking solution was discarded, and the plate was washed 3 times with a PBST buffer (pH 7.4 PBS containing 0.1% tween-20) and set aside for later use. A biotinylated ligand protein at a fixed concentration was mixed with a serially diluted antibody or fusion protein, and the mixture was pre-incubated at 37° C. for 30 min and then added to the blocked microplate. The plate was incubated at 37° C. for 1.5 h. After the incubation, the plate was washed 3 times with PBST, and streptavidin-HRP (Invitrogen, 434323, diluted in a 1:4000 ratio) was added at 100 μL/well. The plate was incubated at 37° C. for 1 h. The supernatant was removed. After the plate was washed 3 times with PBST, the chromogenic substrate TMB (KPL, 5120-0077) was added at 100 μL/well. The plate was incubated at room temperature for 10-15 min, and 1 M H₂SO₄ was added at 50 μL/well to stop the reaction. The absorbance at 450 nm was measured using a microplate reader. Curves for the inhibition of the binding of the ligand to the receptor were fitted using software, and IC₅₀ values were calculated. The sources of the ligand and the receptor protein used are as follows: BAFF (Sino biological, 10056-HNCH) and BAFF-R (Sino biological, 16079-H02H).
as §1

[5] = target: T3, BAFF (PeproTech, Cat: 310-13) (UniProt Q9Y275 134-285); experiment: ELISA, BAFF coated; reference telitacicept
Procedure: (§3) The capabilities of TACI-BCMA fusion proteins (B575701, B575702, B575703, and B575704) to bind to BAFF and APRIL were assessed by ELISA as follows: BAFF (PeproTech, Cat: 310-13) or ARPIL (Acro Biosystems, Cat: APL-H52D1) was diluted to 1 μg/mL with PBS, and a 96-well plate (Costar, Cat: 3590) was coated with the dilution overnight at 4° C. The plate was washed with PBST and blocked with Blocking Buffer (PBST containing 1% BSA) at 37° C. for 1 h. The plate was tapped. The test antibodies were diluted with Blocking Buffer. Incubation was performed at 37° C. for 1.5 h. The plate was washed with PBST. An HRP-mouse anti-human Fc antibody (GenScript, Cat: A01854-200) was diluted with Blocking Buffer. Incubation was performed at 37° C. for 40 min. The plate was washed with PBST. 100 μL of TMB substrate solution (Biopanda, Cat: TMB-S-003) was added, and color development was performed at 37° C. for 3 min. 100 μL of ELISA stop solution (Solarbio, Cat: C1058) was added. OD450 was measured.
(§4) The capability of B575702 to bind to BAFF was consistent with that of B575704, and their EC₅₀ values decreased to ¼ of that of telitacicept. The capability of B575701 to bind to BAFF was consistent with that of B575703, and their EC₅₀ values decreased to ½ of that of telitacicept.

[6] = target: T3, BAFF (PeproTech, Cat: 310-13); experiment: ELISA, BAFF coated at 1 ug/mL, anti-human Fc-HRP, OD450
Procedure: as §3, §4

[7] = target: T1, APRIL (Acro Biosystems, Cat: APL-H52D1); experiment: ELISA, APRIL coated at 1 ug/mL, anti-human Fc-HRP, OD450
Procedure: as §3
The capabilities of the 4 fusion proteins to bind to APRIL were all stronger than that of telitacicept, and their EC₅₀ values decreased to ¼ to ⅓ of that of telitacicept.

[8] = target: T3, BAFF (PeproTech, Cat: 310-13); experiment: ELISA, plate coated with BAFF 1 ug/mL, HRP anti-human Fc, OD450
Procedure: as §3, with “BAFF” for “The capabilities of TACI-BCMA fusion proteins (B575701, B575702, B575703, and B575704) to bind to BAFF and APRIL were assessed by ELISA as follows: BAFF”, “310-13)” for “310-13) or ARPIL (Acro Biosystems, Cat: APL-H52D1)”, “plate” for “plate (Costar, Cat: 3590)”

T2 sequence (Q9Y275 134-285 limits assumed): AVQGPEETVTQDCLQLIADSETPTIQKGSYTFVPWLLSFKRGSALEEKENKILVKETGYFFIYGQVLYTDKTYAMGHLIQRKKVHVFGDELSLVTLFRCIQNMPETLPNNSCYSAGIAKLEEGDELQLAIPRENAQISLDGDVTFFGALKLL
T3 sequence (Q9Y275 134-285 limits assumed): as above

Binder | EC50 [1] [nM] | EC50 [2] [nM] | IC50 [3] [nM] | IC50 [4] [nM] | EC50 relative to telitacicept [5] [fold] | EC50 [6] [nM] | Emax [6] | EC50 [7] [nM] | Emax [7] | EC50 (read off the curve) [8] [nM]
B1 | 0.49 | 0.418 | 5.02 | 2.09 |  |  |  |  |  | 
B2 |  |  |  |  | 0.5 | 0.324 | 2.31 nM (as printed) | 0.205 | 2.69 | 
B3 |  |  |  |  |  |  |  |  |  | ~0.3
B4 |  |  |  |  | 0.25 | 0.187 | 2.29 nM (as printed) | 0.189 | 2.68 | 

Reference: patent publication US20260056186A1 (JIANGSU HENGRUI PHARMACEUTICALS, published 2026)
